This note sets out measurements from article PMC6488583.

Experiment [1] deals with full-length human fibronectin (UniProt P02751). The experiment can be described thus: SPR; Biacore T200; FN amine-coupled to a CM5 chip (1000 RU and 5000 RU); α^UpaB 0.8–100 µM injected; 25 °C, PBS-T (PBS pH 7.4, 0.05% Tween 20); steady-state affinity model; apparent. A general note: SPR reads the build-up and loss of mass on a sensor chip optically.
The target is the same in experiment [2]. The experiment can be described thus: ELISA. The following applies: parent: est. 0.29; read off a plot. A general note: In an ELISA, binding on a coated surface is turned into a signal by an enzyme label.

Sequence of full-length human fibronectin (P02751 32-2477): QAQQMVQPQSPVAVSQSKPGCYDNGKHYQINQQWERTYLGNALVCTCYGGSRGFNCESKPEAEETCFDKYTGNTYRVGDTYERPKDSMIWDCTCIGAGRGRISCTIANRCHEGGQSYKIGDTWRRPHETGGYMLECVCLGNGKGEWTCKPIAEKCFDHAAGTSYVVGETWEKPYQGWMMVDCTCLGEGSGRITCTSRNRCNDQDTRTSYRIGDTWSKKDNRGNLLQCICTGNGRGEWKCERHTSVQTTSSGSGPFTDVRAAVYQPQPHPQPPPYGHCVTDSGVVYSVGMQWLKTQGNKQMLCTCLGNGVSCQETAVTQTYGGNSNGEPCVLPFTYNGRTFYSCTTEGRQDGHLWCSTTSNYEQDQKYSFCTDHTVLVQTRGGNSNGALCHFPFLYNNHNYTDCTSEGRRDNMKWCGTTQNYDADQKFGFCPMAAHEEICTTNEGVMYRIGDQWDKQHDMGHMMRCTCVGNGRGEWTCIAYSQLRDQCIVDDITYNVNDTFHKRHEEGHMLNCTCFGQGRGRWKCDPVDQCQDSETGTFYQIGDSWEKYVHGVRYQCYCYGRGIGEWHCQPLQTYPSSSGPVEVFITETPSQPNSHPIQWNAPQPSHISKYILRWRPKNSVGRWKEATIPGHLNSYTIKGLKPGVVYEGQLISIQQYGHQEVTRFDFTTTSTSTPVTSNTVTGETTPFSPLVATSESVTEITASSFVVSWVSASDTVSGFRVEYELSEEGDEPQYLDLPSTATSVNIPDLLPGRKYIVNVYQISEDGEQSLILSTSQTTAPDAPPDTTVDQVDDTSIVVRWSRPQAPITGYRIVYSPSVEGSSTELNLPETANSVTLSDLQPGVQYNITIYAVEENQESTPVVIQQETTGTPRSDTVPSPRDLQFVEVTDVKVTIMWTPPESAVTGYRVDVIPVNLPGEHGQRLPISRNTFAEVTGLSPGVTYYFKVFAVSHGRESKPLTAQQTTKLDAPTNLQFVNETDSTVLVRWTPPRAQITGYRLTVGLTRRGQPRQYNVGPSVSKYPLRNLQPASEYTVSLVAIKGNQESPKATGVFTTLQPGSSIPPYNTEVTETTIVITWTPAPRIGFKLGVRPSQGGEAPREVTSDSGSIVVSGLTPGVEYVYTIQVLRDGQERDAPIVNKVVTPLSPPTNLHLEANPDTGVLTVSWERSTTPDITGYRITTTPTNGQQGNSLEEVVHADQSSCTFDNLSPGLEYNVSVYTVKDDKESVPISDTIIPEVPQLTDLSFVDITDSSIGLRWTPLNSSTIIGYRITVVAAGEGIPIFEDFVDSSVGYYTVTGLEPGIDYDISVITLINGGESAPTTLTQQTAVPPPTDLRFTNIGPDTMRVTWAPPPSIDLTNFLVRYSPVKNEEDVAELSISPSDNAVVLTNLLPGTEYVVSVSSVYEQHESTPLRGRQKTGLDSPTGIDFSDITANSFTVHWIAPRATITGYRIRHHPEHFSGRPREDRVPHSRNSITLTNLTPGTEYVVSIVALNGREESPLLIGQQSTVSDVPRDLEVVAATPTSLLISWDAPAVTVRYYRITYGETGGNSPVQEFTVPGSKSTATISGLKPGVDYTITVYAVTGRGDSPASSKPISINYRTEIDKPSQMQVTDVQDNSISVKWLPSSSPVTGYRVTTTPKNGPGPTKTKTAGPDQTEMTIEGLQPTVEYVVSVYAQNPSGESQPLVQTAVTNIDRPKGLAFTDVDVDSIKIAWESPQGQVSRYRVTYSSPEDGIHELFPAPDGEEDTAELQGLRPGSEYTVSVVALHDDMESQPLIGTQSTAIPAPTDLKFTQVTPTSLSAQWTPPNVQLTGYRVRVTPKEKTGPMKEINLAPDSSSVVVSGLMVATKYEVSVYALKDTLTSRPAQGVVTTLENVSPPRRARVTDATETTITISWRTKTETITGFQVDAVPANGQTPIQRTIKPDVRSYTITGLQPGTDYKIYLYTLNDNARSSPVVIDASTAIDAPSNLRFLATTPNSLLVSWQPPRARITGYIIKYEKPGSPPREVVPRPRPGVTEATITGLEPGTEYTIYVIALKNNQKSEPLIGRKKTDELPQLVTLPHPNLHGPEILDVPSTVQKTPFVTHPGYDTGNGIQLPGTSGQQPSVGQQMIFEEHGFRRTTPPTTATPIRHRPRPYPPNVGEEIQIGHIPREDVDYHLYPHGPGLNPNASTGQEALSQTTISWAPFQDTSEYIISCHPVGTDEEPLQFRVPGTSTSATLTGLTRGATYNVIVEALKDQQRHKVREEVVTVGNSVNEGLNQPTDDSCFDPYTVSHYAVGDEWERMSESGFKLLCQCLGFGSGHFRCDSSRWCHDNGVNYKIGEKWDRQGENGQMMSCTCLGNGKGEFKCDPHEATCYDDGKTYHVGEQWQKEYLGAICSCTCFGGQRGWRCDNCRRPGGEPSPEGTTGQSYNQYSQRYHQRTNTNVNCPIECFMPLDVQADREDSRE

Take “UpaB α-domain (α^UpaB), residues 38–500, from UPEC CFT073 (domain or fragment; other documents disagree on this pair)”: in experiment [1], the Kd stood at 45.2 µM.

As to “UpaB α-domain (α^UpaB), residues 38–500, from UPEC CFT073 E103A; D138A; E165A; E226A”, in experiment [2], the response (Absorbance at 405 nm) worked out at 0.27.

On to “UpaB α-domain (α^UpaB), residues 38–500, from UPEC CFT073 E165A; N189A; Q197A; N200A; Q203A; K256A; N316A”, for which the response (Absorbance at 405 nm) in experiment [2] came out at 0.33.

“UpaB α-domain (α^UpaB), residues 38–500, from UPEC CFT073 F101A; Y130A; Y187A; F195A; L201G; L202G; Y260A”: the response (Absorbance at 405 nm) in experiment [2] is 0.21.

For “UpaB α-domain (α^UpaB), residues 38–500, from UPEC CFT073 N116A; D119A; N146A; N175A; D217A; K245A; D246A; D281A; R310A; D336A”, in experiment [2], the response (Absorbance at 405 nm) was found to be 0.039.
